Assay results from doi:10.1101/600387.

Biological target: Sulfolobus acidocaldarius R2-like ligand-binding oxidase (Sulfolobus acidocaldarius)
Assay: crystal structure

With “Sulfolobus acidocaldarius R2-like ligand-binding oxidase (enzyme)” the stoichiometry N was 2.
